Test results published in the supplement of paper PMC7877785.
± gives the uncertainty stated by the source.

Test: self-splicing fitness, log relative to wild type (ln ratio); higher = more splicing; Tetrahymena group I intron in knt gene, E. coli kanamycin selection, DiMSum; sequences stand for … in CUCUCU…GGAGGGAAAAGUUAUCAGGCAUGCACCUGGUAGCUAGUCUUUAAACCAAUAGAUUGCAUCGGUUUAAAAGGCAAGACCGUCAAAUUGCGGGAAAGGGGUCAACAGCCGUUCAGUACCAAGUCUCAGGGGAAACUUUGAGAUGGCCUUGCAAAGGGUAUGGUAAUAAGCUGACGGACAUGGUCCUAACCACGCAGCCAAGUCCUAAGUCAACAGAUCUUCUGUUGAUAUGGAUGCAGUUCACAGACUAAAUGUCGGUCGGGGAAGAUGUAUUCUUCUCAUAAGAUAUAGUCGGACCUCUCCUUAAUGGGAGCUAGCGGAUGAAGUGAUGCAACACUGGAGCCGCUGGGAACUAAUUUGUAUGCGAAAGUAUAUUGAUUAGUUUUGGAGUACUCGUGGUCG
Method in brief: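 Colonies from six replicate transformations of E. coli BL21(DE3) were pooled and amplicon-sequenced on an Illumina HiSeq 2500. The library placed an intron with all eight P1ex-region nucleotides randomised inside the knt kanamycin-resistance gene on pET-22b(+), and cells grew overnight at 37°C or 30°C on LB agar with or without 25 μg/mL kanamycin (plus 100 μg/mL carbenicillin, 50 μM IPTG, 0.2% rhamnose). Fitness is the DiMSum error-weighted combination of wild-type-normalised replicate fold changes, kanamycin versus none.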

Sequence	self-splicing fitness (ln) (30 °C)	self-splicing fitness (ln) (37 °C)
CCAGAGCAAUAUUACGCUAU	-3.78 ± 0.43	-2.26 ± 0.37
CCAGAGCAAUAUUACGGACG	-1.73 ± 0.069	-0.584 ± 0.085
CCAGAGCAAUAUUACGGAGA	-2.38 ± 0.26	–
CCAGAGCAAUAUUACGGAGC	-2.89 ± 0.35	–
CCAGAGCAAUAUUACGGCGU	-4.2 ± 0.23	-3.29 ± 0.29
CCAGAGCAAUAUUACGGCUA	-2.84 ± 0.2	-2.94 ± 0.4
CCAGAGCAAUAUUACGGGAU	-4.38 ± 0.3	-2.48 ± 0.18
CCAGAGCAAUAUUACGGGGA	-3.06 ± 0.18	-2.61 ± 0.21
CCAGAGCAAUAUUACGGUCU	-4.02 ± 0.18	-2.31 ± 0.23
CCAGAGCAAUAUUACGGUUG	-1.11 ± 0.089	-1.04 ± 0.13
CCAGAGCAAUAUUACGUACA	–	-2.77 ± 0.29
CCAGAGCAAUAUUACGUACU	–	-1.97 ± 0.18
CCAGAGCAAUAUUACGUCGG	-4.42 ± 0.17	-2.2 ± 0.13
CCAGAGCAAUAUUACGUCUU	-3.89 ± 0.21	-3.03 ± 0.2
CCAGAGCAAUAUUACGUGGG	-3.73 ± 0.27	-2.29 ± 0.18
CCAGAGCAAUAUUACGUUAG	-3.15 ± 0.097	-1.72 ± 0.097
CCAUAGCAAUAUUACGACAU	-3.882 ± 0.026	-2.93 ± 0.04
CCAUAGCAAUAUUACGAGGG	-3.56 ± 0.15	-2.25 ± 0.19
CCAUAGCAAUAUUACGAUAC	-3 ± 0.29	-2.33 ± 0.23
CCAUAGCAAUAUUACGAUAU	-3.76 ± 0.2	-2.97 ± 0.19
CCAUAGCAAUAUUACGAUGG	-3.35 ± 0.17	-2.38 ± 0.18
CCAUAGCAAUAUUACGAUGU	-3.94 ± 0.22	-2.71 ± 0.2
CCAUAGCAAUAUUACGCACG	-0.758 ± 0.081	-0.715 ± 0.1
CCAUAGCAAUAUUACGCCUG	-1.08 ± 0.084	0.137 ± 0.099
CCAUAGCAAUAUUACGCUUC	–	-2.24 ± 0.49

Sequence	self-splicing fitness (ln) (30 °C)	self-splicing fitness (ln) (37 °C)
CCAUAGCAAUAUUACGGAAU	-1.22 ± 0.15	-2.38 ± 0.2
CCAUAGCAAUAUUACGGGUG	-1 ± 0.06	-1.48 ± 0.078
CCAUAGCAAUAUUACGGGUU	-3.69 ± 0.17	-3.79 ± 0.34
CCAUAGCAAUAUUACGGUCG	-0.61 ± 0.069	-0.291 ± 0.095
CCAUAGCAAUAUUACGUACA	-3.14 ± 0.21	-1.96 ± 0.21
CCAUAGCAAUAUUACGUCUC	-4.6 ± 0.28	-3.05 ± 0.22
CCAUAGCAAUAUUACGUGGC	-4.63 ± 0.29	-2.43 ± 0.24
CCAUAGCAAUAUUACGUGUC	-3.89 ± 0.2	-2.45 ± 0.23
CCAUAGCAAUAUUACGUUGA	-3.57 ± 0.26	-2.31 ± 0.15
CCAUAGCAAUAUUACGUUGG	-4.37 ± 0.25	-3.27 ± 0.24
CCCAAGCAAUAUUACGACCG	-3.32 ± 0.24	-3.03 ± 0.47
CCCAAGCAAUAUUACGAGCC	-3.79 ± 0.4	-2.79 ± 0.44
CCCAAGCAAUAUUACGAGGG	-4.18 ± 0.17	-2.53 ± 0.16
CCCAAGCAAUAUUACGAUAG	-2.95 ± 0.16	-2.54 ± 0.22
CCCAAGCAAUAUUACGAUUG	-3.88 ± 0.2	-2.78 ± 0.28
CCCAAGCAAUAUUACGCACA	-2.53 ± 0.2	-2.19 ± 0.31
CCCAAGCAAUAUUACGCCAA	-2.82 ± 0.16	-2.47 ± 0.2
CCCAAGCAAUAUUACGCCUG	-3.12 ± 0.19	-2.88 ± 0.27
CCCAAGCAAUAUUACGCGGG	-3.8 ± 0.17	-2.45 ± 0.18
CCCAAGCAAUAUUACGCUGA	-3.51 ± 0.25	-3.69 ± 0.34
CCCAAGCAAUAUUACGCUGU	-3.8 ± 0.15	-2.95 ± 0.17
CCCAAGCAAUAUUACGCUUA	-3.38 ± 0.22	-2.78 ± 0.21
CCCAAGCAAUAUUACGCUUC	-2.84 ± 0.18	-3.15 ± 0.43
CCCAAGCAAUAUUACGGCCA	-3.58 ± 0.31	-1.58 ± 0.16
CCCAAGCAAUAUUACGGGUU	-2.98 ± 0.12	-2.9 ± 0.2

Sequence	self-splicing fitness (ln) (30 °C)	self-splicing fitness (ln) (37 °C)
CCCAAGCAAUAUUACGUACU	-3.84 ± 0.19	-2.46 ± 0.21
CCCAAGCAAUAUUACGUUAG	-4.82 ± 0.24	-3.02 ± 0.22
CCCAAGCAAUAUUACGUUUG	-4.1 ± 0.21	-2.82 ± 0.21
CCCCAGCAAUAUUACGACGA	-4.12 ± 0.39	-2.68 ± 0.27
CCCCAGCAAUAUUACGACGG	-3.1 ± 0.17	-3.42 ± 0.3
CCCCAGCAAUAUUACGCAGA	-4.17 ± 0.28	-3.54 ± 0.21
CCCCAGCAAUAUUACGCAGU	-3.25 ± 0.12	-2.71 ± 0.15
CCCCAGCAAUAUUACGCAUG	-3.67 ± 0.17	-2.75 ± 0.16
CCCCAGCAAUAUUACGCGCG	-2.69 ± 0.14	-2.97 ± 0.22
CCCCAGCAAUAUUACGCGGC	-2.98 ± 0.16	-3.16 ± 0.4
CCCCAGCAAUAUUACGCGUC	-3.21 ± 0.17	-2.92 ± 0.18
CCCCAGCAAUAUUACGCUAU	-3.43 ± 0.15	-1.9 ± 0.13
CCCCAGCAAUAUUACGGCAC	-4.46 ± 0.42	-2.55 ± 0.29
CCCCAGCAAUAUUACGGCUU	-3.23 ± 0.21	-2.25 ± 0.23
CCCCAGCAAUAUUACGUAGC	-3.93 ± 0.16	-2.93 ± 0.2
CCCCAGCAAUAUUACGUAUU	-3.55 ± 0.16	-3.28 ± 0.28
CCCCAGCAAUAUUACGUGAA	-4.42 ± 0.13	-2.44 ± 0.099
CCCCAGCAAUAUUACGUGGA	-3.09 ± 0.086	-1.23 ± 0.068
CCCCAGCAAUAUUACGUUUC	-4.32 ± 0.28	-2.36 ± 0.23
CCCGAGCAAUAUUACGACAG	–	-2.46 ± 0.41
CCCGAGCAAUAUUACGACCA	–	-1.35 ± 0.31
CCCGAGCAAUAUUACGACCG	-4 ± 0.29	-2.24 ± 0.29
CCCGAGCAAUAUUACGACGG	-3.44 ± 0.17	-3.49 ± 0.27
CCCGAGCAAUAUUACGAGAG	-3.25 ± 0.2	-2.15 ± 0.36
CCCGAGCAAUAUUACGAGCG	-3.77 ± 0.29	-2.88 ± 0.27

Sequence	self-splicing fitness (ln) (30 °C)	self-splicing fitness (ln) (37 °C)
CCCGAGCAAUAUUACGAUGC	-4.29 ± 0.46	-2.52 ± 0.38
CCCGAGCAAUAUUACGAUUA	-3.04 ± 0.24	-2.4 ± 0.21
CCCGAGCAAUAUUACGCAGC	–	-2.05 ± 0.42
CCCGAGCAAUAUUACGCGAC	-1.96 ± 0.29	-1.68 ± 0.29
CCCGAGCAAUAUUACGCUAA	-2.14 ± 0.27	-1.99 ± 0.2
CCCGAGCAAUAUUACGGACU	-2.57 ± 0.11	-2.19 ± 0.2
CCCGAGCAAUAUUACGGCCG	-4.1 ± 0.23	-3.14 ± 0.32
CCCGAGCAAUAUUACGGCGG	-3.49 ± 0.23	-1.66 ± 0.2
CCCGAGCAAUAUUACGGCUU	-3.29 ± 0.17	-2.71 ± 0.2
CCCGAGCAAUAUUACGGGAA	-4.33 ± 0.29	-2.39 ± 0.14
CCCGAGCAAUAUUACGGUAG	-3.16 ± 0.18	-2.35 ± 0.17
CCCGAGCAAUAUUACGGUCU	-2.83 ± 0.21	-1.85 ± 0.23
CCCGAGCAAUAUUACGUGCA	-3.5 ± 0.2	-1.52 ± 0.15
CCCGAGCAAUAUUACGUGCC	-4.31 ± 0.3	-3.26 ± 0.37
CCCGAGCAAUAUUACGUGGU	-4.96 ± 0.34	-2.59 ± 0.19
CCCGAGCAAUAUUACGUGUA	-3.33 ± 0.2	-2.97 ± 0.32
CCCGAGCAAUAUUACGUUAA	-2.82 ± 0.2	-2.25 ± 0.16
CCCGAGCAAUAUUACGUUGU	-3.46 ± 0.14	-2.73 ± 0.19
CCCUAGCAAUAUUACGACUU	-3.27 ± 0.23	-2.7 ± 0.29
CCCUAGCAAUAUUACGAGAU	-3.88 ± 0.22	-2.91 ± 0.24
CCCUAGCAAUAUUACGAUGG	-3.91 ± 0.2	-1.79 ± 0.15
CCCUAGCAAUAUUACGCAAU	-3.56 ± 0.23	-2.02 ± 0.27
